Measurements as given in patent US5444151A, “Platelet derived growth factor antagonists” (Ludwig Institute for Cancer Research, priority 1992, dated 1995).

Tested on: human foreskin fibroblasts
Assay: Ligand stimulated [3H]thymidine incorporation
Type: cell-based
Source text: The possible role of peptide 16T as an antagonist for PDGF activity in vivo was investigated. Following the methodology of Betsholtz et al., J. Cell Physiol 118: 203-210 (1984), the disclosure of which is incorporated by reference, [^3 H] thymidine incorporation by human fibroblasts in the presence of various peptides was studied.

B1: PDGF-BB: platelet derived growth factor B chain homodimer (protein, UniProt P01127 82-190, looked up)
Platelet-derived growth …: SLGSLTIAEPAMIAECKTRTEVFEISRRLIDRTNANFLVWPPCVEVQRCSGCCNNRNVQCRPTQVQLRPVQVRKIEIVRKKPIFKKATVTLEDHLACKCETVAAARPVT
[3H]thymidine incorporation, ligand alone (no peptide (unstimulated control 483 cpm), mean of duplicates): 1918 cpm
Stimulation of [3H]thymidine incorporation by ligand (no peptide, versus unstimulated control): 4 fold
